# Measurements reported in patent US20220048967A1 (published 2022).
# Substitutions are numbered along the chain they refer to. Numbered stars: 1 amine (or outer) side, 2 acyl side, 3 side chain; on linkers, the order of the positions; unused ones are H or OH. Square brackets hold non-standard residues; d marks the D form. Side chains are listed from the residue outwards. Ends that are not written are not given here. * marks the point of attachment. C20 diacid = O=C(O)CCCCCCCCCCCCCCCCCCC(=O)*; C18 diacid = O=C(O)CCCCCCCCCCCCCCCCC(=O)*; γGlu = O=C(O)[C@H](CCC(=O)[*:2])N[*:1]; AEEA = NCCOCCOCC(=O)O; Aib = CC(C)(N)C(=O)O
# T1: human gastric inhibitory peptide receptor (GIPR) (human, UniProt P48546 22-466)
# T1 sequence (looked up): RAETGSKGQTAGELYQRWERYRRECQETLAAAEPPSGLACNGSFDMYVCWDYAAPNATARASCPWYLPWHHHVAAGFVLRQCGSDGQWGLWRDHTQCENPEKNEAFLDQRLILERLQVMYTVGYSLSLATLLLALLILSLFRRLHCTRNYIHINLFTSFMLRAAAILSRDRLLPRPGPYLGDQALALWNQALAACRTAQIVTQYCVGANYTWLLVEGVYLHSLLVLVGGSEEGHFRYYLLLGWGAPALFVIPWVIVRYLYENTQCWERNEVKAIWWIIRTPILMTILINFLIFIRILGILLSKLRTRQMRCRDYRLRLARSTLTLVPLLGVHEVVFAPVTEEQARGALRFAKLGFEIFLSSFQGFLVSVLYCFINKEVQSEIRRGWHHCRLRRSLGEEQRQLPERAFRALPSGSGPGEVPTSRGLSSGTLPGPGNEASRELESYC
# B1: Example 312 (peptide)
# peptide: YXEGTXTSDYSILLDKKAQXEFIEYLIEGGPSSG
# modifications: Aib2, αMeF(2F)6, (2-[2-(2-Amino-ethoxy)-ethoxy]-acetyl)2-(γ-Glu)-CO-(CH2)16-CO2H on K17, Aib20, C-terminal NH2
# B2: Example 313 (peptide)
# peptide: B1 peptide with E21A, E28A
# modifications: Aib2, αMeF(2F)6, (2-[2-(2-Amino-ethoxy)-ethoxy]-acetyl)2-(γ-Glu)-CO-(CH2)16-CO2H on K17, Aib20, C-terminal NH2
# B3: Example 314 (peptide)
# peptide: B1 peptide with E28A
# modifications: Aib2, αMeF(2F)6, (2-[2-(2-Amino-ethoxy)-ethoxy]-acetyl)2-(γ-Glu)-CO-(CH2)16-CO2H on K17, Aib20, C-terminal NH2
# B4: Example 319 (peptide)
# peptide: Y[Aib]EGTFTSDYSILLDKK([AEEA-AEEA-γGlu-C20 diacid])AQ[Aib]EFIEYLIAGGPSSGAPPPS-NH2
# modifications: N-terminus assumed
# SMILES: CC[C@H](C)[C@H](NC(=O)[C@H](CC(C)C)NC(=O)[C@H](Cc1ccc(O)cc1)NC(=O)[C@H](CCC(=O)O)NC(=O)[C@@H](NC(=O)[C@H](Cc1ccccc1)NC(=O)[C@H](CCC(=O)O)NC(=O)C(C)(C)NC(=O)[C@H](CCC(N)=O)NC(=O)[C@H](C)NC(=O)[C@H](CCCCNC(=O)COCCOCCNC(=O)COCCOCCNC(=O)CC[C@H](NC(=O)CCCCCCCCCCCCCCCCCCC(=O)O)C(=O)O)NC(=O)[C@H](CCCCN)NC(=O)[C@H](CC(=O)O)NC(=O)[C@H](CC(C)C)NC(=O)[C@H](CC(C)C)NC(=O)[C@@H](NC(=O)[C@H](CO)NC(=O)[C@H](Cc1ccc(O)cc1)NC(=O)[C@H](CC(=O)O)NC(=O)[C@H](CO)NC(=O)[C@@H](NC(=O)[C@H](Cc1ccccc1)NC(=O)[C@@H](NC(=O)CNC(=O)[C@H](CCC(=O)O)NC(=O)C(C)(C)NC(=O)[C@@H](N)Cc1ccc(O)cc1)[C@@H](C)O)[C@@H](C)O)[C@@H](C)CC)[C@@H](C)CC)C(=O)N[C@@H](C)C(=O)NCC(=O)NCC(=O)N1CCC[C@H]1C(=O)N[C@@H](CO)C(=O)N[C@@H](CO)C(=O)NCC(=O)N[C@@H](C)C(=O)N1CCC[C@H]1C(=O)N1CCC[C@H]1C(=O)N1CCC[C@H]1C(=O)N[C@@H](CO)C(N)=O
# B5: Example 318 (peptide)
# peptide: Y[Aib]EGTFTSDYSILLDKK([AEEA-AEEA-γGlu-C20 diacid])AQ[Aib]EFIEYLIAGGPSSG-NH2
# modifications: N-terminus assumed
# SMILES: CC[C@H](C)[C@H](NC(=O)[C@H](CC(C)C)NC(=O)[C@H](Cc1ccc(O)cc1)NC(=O)[C@H](CCC(=O)O)NC(=O)[C@@H](NC(=O)[C@H](Cc1ccccc1)NC(=O)[C@H](CCC(=O)O)NC(=O)C(C)(C)NC(=O)[C@H](CCC(N)=O)NC(=O)[C@H](C)NC(=O)[C@H](CCCCNC(=O)COCCOCCNC(=O)COCCOCCNC(=O)CC[C@H](NC(=O)CCCCCCCCCCCCCCCCCCC(=O)O)C(=O)O)NC(=O)[C@H](CCCCN)NC(=O)[C@H](CC(=O)O)NC(=O)[C@H](CC(C)C)NC(=O)[C@H](CC(C)C)NC(=O)[C@@H](NC(=O)[C@H](CO)NC(=O)[C@H](Cc1ccc(O)cc1)NC(=O)[C@H](CC(=O)O)NC(=O)[C@H](CO)NC(=O)[C@@H](NC(=O)[C@H](Cc1ccccc1)NC(=O)[C@@H](NC(=O)CNC(=O)[C@H](CCC(=O)O)NC(=O)C(C)(C)NC(=O)[C@@H](N)Cc1ccc(O)cc1)[C@@H](C)O)[C@@H](C)O)[C@@H](C)CC)[C@@H](C)CC)C(=O)N[C@@H](C)C(=O)NCC(=O)NCC(=O)N1CCC[C@H]1C(=O)N[C@@H](CO)C(=O)N[C@@H](CO)C(=O)NCC(N)=O
# B6: Example 315 (peptide)
# peptide: YXEGTFTSDYSILLDKKAQXAFIEYLIEGGPSSGAPPPS
# modifications: Aib2, (2-[2-(2-Amino-ethoxy)-ethoxy]-acetyl)2-(γ-Glu)-CO-(CH2)16-CO2H on K17, Aib20, C-terminal NH2
# B7: Example 316 (peptide)
# peptide: Y[Aib]EGTFTSDYSILLDKK([AEEA-AEEA-γGlu-C18 diacid])AQ[Aib]AFIEYLIAGGPSSGAPPPS-NH2
# modifications: N-terminus assumed
# SMILES: CC[C@H](C)[C@H](NC(=O)[C@H](CC(C)C)NC(=O)[C@H](Cc1ccc(O)cc1)NC(=O)[C@H](CCC(=O)O)NC(=O)[C@@H](NC(=O)[C@H](Cc1ccccc1)NC(=O)[C@H](C)NC(=O)C(C)(C)NC(=O)[C@H](CCC(N)=O)NC(=O)[C@H](C)NC(=O)[C@H](CCCCNC(=O)COCCOCCNC(=O)COCCOCCNC(=O)CC[C@H](NC(=O)CCCCCCCCCCCCCCCCC(=O)O)C(=O)O)NC(=O)[C@H](CCCCN)NC(=O)[C@H](CC(=O)O)NC(=O)[C@H](CC(C)C)NC(=O)[C@H](CC(C)C)NC(=O)[C@@H](NC(=O)[C@H](CO)NC(=O)[C@H](Cc1ccc(O)cc1)NC(=O)[C@H](CC(=O)O)NC(=O)[C@H](CO)NC(=O)[C@@H](NC(=O)[C@H](Cc1ccccc1)NC(=O)[C@@H](NC(=O)CNC(=O)[C@H](CCC(=O)O)NC(=O)C(C)(C)NC(=O)[C@@H](N)Cc1ccc(O)cc1)[C@@H](C)O)[C@@H](C)O)[C@@H](C)CC)[C@@H](C)CC)C(=O)N[C@@H](C)C(=O)NCC(=O)NCC(=O)N1CCC[C@H]1C(=O)N[C@@H](CO)C(=O)N[C@@H](CO)C(=O)NCC(=O)N[C@@H](C)C(=O)N1CCC[C@H]1C(=O)N1CCC[C@H]1C(=O)N1CCC[C@H]1C(=O)N[C@@H](CO)C(N)=O
# B8: Example 317 (peptide)
# peptide: Y[Aib]EGTFTSDYSILLDKK([AEEA-AEEA-γGlu-C20 diacid])AQ[Aib]AFIEYLIAGGPSSG-NH2
# modifications: N-terminus assumed
# SMILES: CC[C@H](C)[C@H](NC(=O)[C@H](CC(C)C)NC(=O)[C@H](Cc1ccc(O)cc1)NC(=O)[C@H](CCC(=O)O)NC(=O)[C@@H](NC(=O)[C@H](Cc1ccccc1)NC(=O)[C@H](C)NC(=O)C(C)(C)NC(=O)[C@H](CCC(N)=O)NC(=O)[C@H](C)NC(=O)[C@H](CCCCNC(=O)COCCOCCNC(=O)COCCOCCNC(=O)CC[C@H](NC(=O)CCCCCCCCCCCCCCCCCCC(=O)O)C(=O)O)NC(=O)[C@H](CCCCN)NC(=O)[C@H](CC(=O)O)NC(=O)[C@H](CC(C)C)NC(=O)[C@H](CC(C)C)NC(=O)[C@@H](NC(=O)[C@H](CO)NC(=O)[C@H](Cc1ccc(O)cc1)NC(=O)[C@H](CC(=O)O)NC(=O)[C@H](CO)NC(=O)[C@@H](NC(=O)[C@H](Cc1ccccc1)NC(=O)[C@@H](NC(=O)CNC(=O)[C@H](CCC(=O)O)NC(=O)C(C)(C)NC(=O)[C@@H](N)Cc1ccc(O)cc1)[C@@H](C)O)[C@@H](C)O)[C@@H](C)CC)[C@@H](C)CC)C(=O)N[C@@H](C)C(=O)NCC(=O)NCC(=O)N1CCC[C@H]1C(=O)N[C@@H](CO)C(=O)N[C@@H](CO)C(=O)NCC(N)=O
# B9: Example 320 (peptide)
# peptide: Y[Aib]EGTFTSDYSILLDKK([AEEA-AEEA-γGlu-C18 diacid])AQ[Aib]DFIEYLIEGGPSSG-NH2
# modifications: N-terminus assumed
# SMILES: CC[C@H](C)[C@H](NC(=O)[C@H](CC(C)C)NC(=O)[C@H](Cc1ccc(O)cc1)NC(=O)[C@H](CCC(=O)O)NC(=O)[C@@H](NC(=O)[C@H](Cc1ccccc1)NC(=O)[C@H](CC(=O)O)NC(=O)C(C)(C)NC(=O)[C@H](CCC(N)=O)NC(=O)[C@H](C)NC(=O)[C@H](CCCCNC(=O)COCCOCCNC(=O)COCCOCCNC(=O)CC[C@H](NC(=O)CCCCCCCCCCCCCCCCC(=O)O)C(=O)O)NC(=O)[C@H](CCCCN)NC(=O)[C@H](CC(=O)O)NC(=O)[C@H](CC(C)C)NC(=O)[C@H](CC(C)C)NC(=O)[C@@H](NC(=O)[C@H](CO)NC(=O)[C@H](Cc1ccc(O)cc1)NC(=O)[C@H](CC(=O)O)NC(=O)[C@H](CO)NC(=O)[C@@H](NC(=O)[C@H](Cc1ccccc1)NC(=O)[C@@H](NC(=O)CNC(=O)[C@H](CCC(=O)O)NC(=O)C(C)(C)NC(=O)[C@@H](N)Cc1ccc(O)cc1)[C@@H](C)O)[C@@H](C)O)[C@@H](C)CC)[C@@H](C)CC)C(=O)N[C@@H](CCC(=O)O)C(=O)NCC(=O)NCC(=O)N1CCC[C@H]1C(=O)N[C@@H](CO)C(=O)N[C@@H](CO)C(=O)NCC(N)=O
# Assays:
# [1] = molecular target: T1, human gastric inhibitory peptide …; test: cell-based or functional assay
# [2] = molecular target: human GLP-1 receptor (GLP-1R) (human, UniProt P43220 24-463); test: cell-based or functional assay
Binder,hGIPR cAMP EC50 ratio [1],hGIPR cAMP Rel EC50 [1],hGLP1R cAMP EC50 ratio [2],hGLP1R cAMP Rel EC50 [2]
B1,4.76,0.0207 nM,1.53,0.0262 nM
B2,2.87,0.0233 nM,0.867,0.0388 nM
B3,2.81,0.029 nM,1.48,0.029 nM
B4,2.77,0.054 nM,0.522,0.113 nM
B5,1.69,0.0547 nM,0.482,0.124 nM
B6,,0.0408 nM,,0.0651 nM
B7,3.75,0.024 nM,0.644,0.122 nM
B8,1.01,0.0948 nM,0.333,0.172 nM
B9,0.241,0.161 nM,0.224,0.397 nM
